Test results published in US20140087995A1 (published 2014).
Values belong to the binder of their own block, whether it stands above or below them. Numbered stars: 1 amine (or outer) side, 2 acyl side, 3 side chain; on linkers, the order of the positions; unused ones are H or OH. Bridge positions count the residues as written; N and C are the ends. Side chains are listed from the residue outwards. Ends that are not written are not given here. * marks the point of attachment. C20 diacid = O=C(O)CCCCCCCCCCCCCCCCCCC(=O)*; γGlu = O=C(O)[C@H](CCC(=O)[*:2])N[*:1]; AEEA = NCCOCCOCC(=O)O

What was measured:
[1] = target: T1, human amylin receptor (amylin 3(a) receptor: human calcitonin receptor coexpressed with RAMP-3) (human, UniProt P30988 25-474; O60896 24-148); experiment: cell-based or functional assay
T1 sequence (looked up) 1: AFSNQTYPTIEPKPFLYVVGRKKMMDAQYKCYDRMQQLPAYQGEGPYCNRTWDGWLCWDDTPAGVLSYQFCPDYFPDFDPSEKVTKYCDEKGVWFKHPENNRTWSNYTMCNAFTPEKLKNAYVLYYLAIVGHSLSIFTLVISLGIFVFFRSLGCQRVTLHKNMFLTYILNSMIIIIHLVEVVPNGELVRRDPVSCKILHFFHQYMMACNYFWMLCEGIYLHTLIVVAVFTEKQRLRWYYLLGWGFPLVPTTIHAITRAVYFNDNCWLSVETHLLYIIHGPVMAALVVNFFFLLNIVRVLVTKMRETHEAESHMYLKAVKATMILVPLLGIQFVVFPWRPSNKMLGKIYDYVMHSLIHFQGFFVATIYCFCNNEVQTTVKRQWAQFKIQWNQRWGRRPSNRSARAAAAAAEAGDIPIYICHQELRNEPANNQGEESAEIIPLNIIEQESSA
T1 sequence (looked up) 2: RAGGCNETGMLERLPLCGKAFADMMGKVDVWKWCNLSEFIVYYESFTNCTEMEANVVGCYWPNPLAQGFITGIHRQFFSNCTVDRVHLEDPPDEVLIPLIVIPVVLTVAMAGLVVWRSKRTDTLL

[2] = target: T2, human calcitonin receptor (human, UniProt P30988 25-474); experiment: cell-based or functional assay
T2 sequence (looked up): T1 sequence (looked up) 1

B2: N^ε1-[(4S)-4-carboxy-4-(19-carboxynonadecanoylamino)butanoyl]-[Arg14,Arg17,Pro21,Pro27]-h-amylin (peptide)
peptide: K([γGlu-C20 diacid])CNTATCATQRLARFLRHSSPNFGAIPSSTNVGSNTY-NH2
modifications: disulfide 2-7; N-terminus assumed
SMILES: CC[C@H](C)[C@H](NC(=O)[C@H](C)NC(=O)CNC(=O)[C@H](Cc1ccccc1)NC(=O)[C@H](CC(N)=O)NC(=O)[C@@H]1CCCN1C(=O)[C@H](CO)NC(=O)[C@H](CO)NC(=O)[C@H](Cc1c[nH]cn1)NC(=O)[C@H](CCCNC(=N)N)NC(=O)[C@H](CC(C)C)NC(=O)[C@H](Cc1ccccc1)NC(=O)[C@H](CCCNC(=N)N)NC(=O)[C@H](C)NC(=O)[C@H](CC(C)C)NC(=O)[C@H](CCCNC(=N)N)NC(=O)[C@H](CCC(N)=O)NC(=O)[C@@H](NC(=O)[C@H](C)NC(=O)[C@@H]1CSSC[C@H](NC(=O)[C@@H](N)CCCCNC(=O)CC[C@H](NC(=O)CCCCCCCCCCCCCCCCCCC(=O)O)C(=O)O)C(=O)N[C@@H](CC(N)=O)C(=O)N[C@@H]([C@@H](C)O)C(=O)N[C@@H](C)C(=O)N[C@@H]([C@@H](C)O)C(=O)N1)[C@@H](C)O)C(=O)N1CCC[C@H]1C(=O)N[C@@H](CO)C(=O)N[C@@H](CO)C(=O)N[C@H](C(=O)N[C@@H](CC(N)=O)C(=O)N[C@H](C(=O)NCC(=O)N[C@@H](CO)C(=O)N[C@@H](CC(N)=O)C(=O)N[C@H](C(=O)N[C@@H](Cc1ccc(O)cc1)C(N)=O)[C@@H](C)O)C(C)C)[C@@H](C)O
notes: also called compound 83
- hAmylin-R funct. EC50 (pM) [1]: 405 pM
- hCTR funct. EC50 (pM) [2]: 16800 pM

B3: N^ε1-[2-[2-[2-[[(4S)-4-carboxy-4-(19-carboxynonadecanoylamino)butanoyl]amino]ethoxy]ethoxy]acetyl]-[His14,Arg17,Pro21,Pro27,His34]-h-amylin (peptide)
peptide: K([AEEA-γGlu-C20 diacid])CNTATCATQRLAHFLRHSSPNFGAIPSSTNVGHNTY-NH2
modifications: disulfide 2-7; N-terminus assumed
SMILES: CC[C@H](C)[C@H](NC(=O)[C@H](C)NC(=O)CNC(=O)[C@H](Cc1ccccc1)NC(=O)[C@H](CC(N)=O)NC(=O)[C@@H]1CCCN1C(=O)[C@H](CO)NC(=O)[C@H](CO)NC(=O)[C@H](Cc1c[nH]cn1)NC(=O)[C@H](CCCNC(=N)N)NC(=O)[C@H](CC(C)C)NC(=O)[C@H](Cc1ccccc1)NC(=O)[C@H](Cc1c[nH]cn1)NC(=O)[C@H](C)NC(=O)[C@H](CC(C)C)NC(=O)[C@H](CCCNC(=N)N)NC(=O)[C@H](CCC(N)=O)NC(=O)[C@@H](NC(=O)[C@H](C)NC(=O)[C@@H]1CSSC[C@H](NC(=O)[C@@H](N)CCCCNC(=O)COCCOCCNC(=O)CC[C@H](NC(=O)CCCCCCCCCCCCCCCCCCC(=O)O)C(=O)O)C(=O)N[C@@H](CC(N)=O)C(=O)N[C@@H]([C@@H](C)O)C(=O)N[C@@H](C)C(=O)N[C@@H]([C@@H](C)O)C(=O)N1)[C@@H](C)O)C(=O)N1CCC[C@H]1C(=O)N[C@@H](CO)C(=O)N[C@@H](CO)C(=O)N[C@H](C(=O)N[C@@H](CC(N)=O)C(=O)N[C@H](C(=O)NCC(=O)N[C@@H](Cc1c[nH]cn1)C(=O)N[C@@H](CC(N)=O)C(=O)N[C@H](C(=O)N[C@@H](Cc1ccc(O)cc1)C(N)=O)[C@@H](C)O)C(C)C)[C@@H](C)O
notes: also called compound 80
- hAmylin-R funct. EC50 (pM) [1]: 139 pM
- Ratio hCT/hAmylin funct. [2]: 15.4
- hCTR funct. EC50 (pM) [2]: 2140 pM

B4: N^ε1-[2-[2-[2-[[(4S)-4-carboxy-4-(19-carboxynonadecanoylamino)butanoyl]amino]ethoxy]ethoxy]acetyl]-[Arg17,Pro21,Pro27,Arg34]-h-amylin (peptide)
peptide: K([AEEA-γGlu-C20 diacid])CNTATCATQRLANFLRHSSPNFGAIPSSTNVGRNTY-NH2
modifications: disulfide 2-7; N-terminus assumed
SMILES: CC[C@H](C)[C@H](NC(=O)[C@H](C)NC(=O)CNC(=O)[C@H](Cc1ccccc1)NC(=O)[C@H](CC(N)=O)NC(=O)[C@@H]1CCCN1C(=O)[C@H](CO)NC(=O)[C@H](CO)NC(=O)[C@H](Cc1c[nH]cn1)NC(=O)[C@H](CCCNC(=N)N)NC(=O)[C@H](CC(C)C)NC(=O)[C@H](Cc1ccccc1)NC(=O)[C@H](CC(N)=O)NC(=O)[C@H](C)NC(=O)[C@H](CC(C)C)NC(=O)[C@H](CCCNC(=N)N)NC(=O)[C@H](CCC(N)=O)NC(=O)[C@@H](NC(=O)[C@H](C)NC(=O)[C@@H]1CSSC[C@H](NC(=O)[C@@H](N)CCCCNC(=O)COCCOCCNC(=O)CC[C@H](NC(=O)CCCCCCCCCCCCCCCCCCC(=O)O)C(=O)O)C(=O)N[C@@H](CC(N)=O)C(=O)N[C@@H]([C@@H](C)O)C(=O)N[C@@H](C)C(=O)N[C@@H]([C@@H](C)O)C(=O)N1)[C@@H](C)O)C(=O)N1CCC[C@H]1C(=O)N[C@@H](CO)C(=O)N[C@@H](CO)C(=O)N[C@H](C(=O)N[C@@H](CC(N)=O)C(=O)N[C@H](C(=O)NCC(=O)N[C@@H](CCCNC(=N)N)C(=O)N[C@@H](CC(N)=O)C(=O)N[C@H](C(=O)N[C@@H](Cc1ccc(O)cc1)C(N)=O)[C@@H](C)O)C(C)C)[C@@H](C)O
notes: also called compound 78
- hAmylin-R funct. EC50 (pM) [1]: 316 pM
- hCTR funct. EC50 (pM) [2]: 8160 pM

B6: N^ε1-[2-[2-[2-[[(4S)-4-carboxy-4-(19-carboxynonadecanoylamino)butanoyl]amino]ethoxy]ethoxy]acetyl]-[His14,Arg17,Pro21,Pro27,Arg34]-h-amylin (peptide)
peptide: K([AEEA-γGlu-C20 diacid])CNTATCATQRLAHFLRHSSPNFGAIPSSTNVGRNTY-NH2
modifications: disulfide 2-7; N-terminus assumed
SMILES: CC[C@H](C)[C@H](NC(=O)[C@H](C)NC(=O)CNC(=O)[C@H](Cc1ccccc1)NC(=O)[C@H](CC(N)=O)NC(=O)[C@@H]1CCCN1C(=O)[C@H](CO)NC(=O)[C@H](CO)NC(=O)[C@H](Cc1c[nH]cn1)NC(=O)[C@H](CCCNC(=N)N)NC(=O)[C@H](CC(C)C)NC(=O)[C@H](Cc1ccccc1)NC(=O)[C@H](Cc1c[nH]cn1)NC(=O)[C@H](C)NC(=O)[C@H](CC(C)C)NC(=O)[C@H](CCCNC(=N)N)NC(=O)[C@H](CCC(N)=O)NC(=O)[C@@H](NC(=O)[C@H](C)NC(=O)[C@@H]1CSSC[C@H](NC(=O)[C@@H](N)CCCCNC(=O)COCCOCCNC(=O)CC[C@H](NC(=O)CCCCCCCCCCCCCCCCCCC(=O)O)C(=O)O)C(=O)N[C@@H](CC(N)=O)C(=O)N[C@@H]([C@@H](C)O)C(=O)N[C@@H](C)C(=O)N[C@@H]([C@@H](C)O)C(=O)N1)[C@@H](C)O)C(=O)N1CCC[C@H]1C(=O)N[C@@H](CO)C(=O)N[C@@H](CO)C(=O)N[C@H](C(=O)N[C@@H](CC(N)=O)C(=O)N[C@H](C(=O)NCC(=O)N[C@@H](CCCNC(=N)N)C(=O)N[C@@H](CC(N)=O)C(=O)N[C@H](C(=O)N[C@@H](Cc1ccc(O)cc1)C(N)=O)[C@@H](C)O)C(C)C)[C@@H](C)O
notes: also called compound 84
- hAmylin-R funct. EC50 (pM) [1]: 169 pM
- hCTR funct. EC50 (pM) [2]: 5490 pM

Next, values leading:

- hAmylin-R funct. EC50 (pM) [1]: 215 pM
- hCTR funct. EC50 (pM) [2]: 12700 pM
B1: N^ε1-[2-[2-[2-[[(4S)-4-carboxy-4-(19-carboxynonadecanoylamino)butanoyl]amino]ethoxy]ethoxy]acetyl]-[Arg14,Arg17,Pro21,Pro27]-h-amylin (peptide)
peptide: K([AEEA-γGlu-C20 diacid])CNTATCATQRLARFLRHSSPNFGAIPSSTNVGSNTY-NH2
modifications: disulfide 2-7; N-terminus assumed
SMILES: CC[C@H](C)[C@H](NC(=O)[C@H](C)NC(=O)CNC(=O)[C@H](Cc1ccccc1)NC(=O)[C@H](CC(N)=O)NC(=O)[C@@H]1CCCN1C(=O)[C@H](CO)NC(=O)[C@H](CO)NC(=O)[C@H](Cc1c[nH]cn1)NC(=O)[C@H](CCCNC(=N)N)NC(=O)[C@H](CC(C)C)NC(=O)[C@H](Cc1ccccc1)NC(=O)[C@H](CCCNC(=N)N)NC(=O)[C@H](C)NC(=O)[C@H](CC(C)C)NC(=O)[C@H](CCCNC(=N)N)NC(=O)[C@H](CCC(N)=O)NC(=O)[C@@H](NC(=O)[C@H](C)NC(=O)[C@@H]1CSSC[C@H](NC(=O)[C@@H](N)CCCCNC(=O)COCCOCCNC(=O)CC[C@H](NC(=O)CCCCCCCCCCCCCCCCCCC(=O)O)C(=O)O)C(=O)N[C@@H](CC(N)=O)C(=O)N[C@@H]([C@@H](C)O)C(=O)N[C@@H](C)C(=O)N[C@@H]([C@@H](C)O)C(=O)N1)[C@@H](C)O)C(=O)N1CCC[C@H]1C(=O)N[C@@H](CO)C(=O)N[C@@H](CO)C(=O)N[C@H](C(=O)N[C@@H](CC(N)=O)C(=O)N[C@H](C(=O)NCC(=O)N[C@@H](CO)C(=O)N[C@@H](CC(N)=O)C(=O)N[C@H](C(=O)N[C@@H](Cc1ccc(O)cc1)C(N)=O)[C@@H](C)O)C(C)C)[C@@H](C)O
notes: also called compound 82

- hAmylin-R funct. EC50 (pM) [1]: 161 pM
- hCTR funct. EC50 (pM) [2]: 3940 pM
B5: N^ε1-[(4S)-4-carboxy-4-(19-carboxynonadecanoylamino)butanoyl]-[Arg17,Pro21,Pro27,Arg34]-h-amylin (peptide)
peptide: K([γGlu-C20 diacid])CNTATCATQRLANFLRHSSPNFGAIPSSTNVGRNTY-NH2
modifications: disulfide 2-7; N-terminus assumed
SMILES: CC[C@H](C)[C@H](NC(=O)[C@H](C)NC(=O)CNC(=O)[C@H](Cc1ccccc1)NC(=O)[C@H](CC(N)=O)NC(=O)[C@@H]1CCCN1C(=O)[C@H](CO)NC(=O)[C@H](CO)NC(=O)[C@H](Cc1c[nH]cn1)NC(=O)[C@H](CCCNC(=N)N)NC(=O)[C@H](CC(C)C)NC(=O)[C@H](Cc1ccccc1)NC(=O)[C@H](CC(N)=O)NC(=O)[C@H](C)NC(=O)[C@H](CC(C)C)NC(=O)[C@H](CCCNC(=N)N)NC(=O)[C@H](CCC(N)=O)NC(=O)[C@@H](NC(=O)[C@H](C)NC(=O)[C@@H]1CSSC[C@H](NC(=O)[C@@H](N)CCCCNC(=O)CC[C@H](NC(=O)CCCCCCCCCCCCCCCCCCC(=O)O)C(=O)O)C(=O)N[C@@H](CC(N)=O)C(=O)N[C@@H]([C@@H](C)O)C(=O)N[C@@H](C)C(=O)N[C@@H]([C@@H](C)O)C(=O)N1)[C@@H](C)O)C(=O)N1CCC[C@H]1C(=O)N[C@@H](CO)C(=O)N[C@@H](CO)C(=O)N[C@H](C(=O)N[C@@H](CC(N)=O)C(=O)N[C@H](C(=O)NCC(=O)N[C@@H](CCCNC(=N)N)C(=O)N[C@@H](CC(N)=O)C(=O)N[C@H](C(=O)N[C@@H](Cc1ccc(O)cc1)C(N)=O)[C@@H](C)O)C(C)C)[C@@H](C)O
notes: also called compound 79
